In paper PMC8897395 (Nature Communications, 2022):

Target: the molecule itself
Assay: […], in Tris-HCl buffer (10 mM Tris-HCl pH 8.0, 150 mM NaCl, 1 mM EDTA); […]

B1: MARV nucleoprotein (1–395), wild type (domain or fragment)
chain: MDLHSLLELGTKPTAPHVRNKKVILFDTNHQVSICNQIIDAINSGIDLGDLLEGGLLTLCVEHYYNSDKDKFNTSPVAKYLRDAGYEFDVIKNADATRFLDVSPNEPHYSPLILALKTLESTESQRGRIGLFLSFCSLFLPKLVVGDRASIEKALRQVTVHQEQGIVTYPNHWLTTGHMKVIFGILRSSFILKFVLIHQGVNLVTGHDAYDSIISNSVGQTRFSGLLIVKTVLEFILQKTDSGVTLHPLVRTSKVKNEVASFKQALSNLARHGEYAPFARVLNLSGINNLEHGLYPQLSAIALGVATAHGSTLAGVNVGEQYQQLREAAHDAEVKLQRRHEHQEIQAIAEDDEERKILEQFHLQKTEITHSQTLAVLSQKREKLARLAAEIENNI
binding result: binds
